The series has as its target Cas9 (Streptococcus pyogenes, UniProt Q99ZW2 1-1368). The series is described as follows: R-loop formation gel assay (deproteinised); sgran50; 5 mM EDTA; efficiency similar to fusions; 25 mM Tris pH 7.5, 106 mM KCl, 50 ug/ml BSA, 5 mM EDTA, 2 mM DTT, 9% glycerol, 37 C; 150 nM protein, 300 nM sgRNA, 25 nM Cy5-dsran50, 75 nM unlabelled MW12 dsDNA competitor; 8% acrylamide TBE gel. Conditions: protein: recombinant, tags: His6, label: 5'-Cy5 on ssran50 strand (strand 2), blunt 50 bp DNA target plus sgRNA, PAM TGG.

Sequence of Cas9 (Q99ZW2 whole entry, the tested form may be a part): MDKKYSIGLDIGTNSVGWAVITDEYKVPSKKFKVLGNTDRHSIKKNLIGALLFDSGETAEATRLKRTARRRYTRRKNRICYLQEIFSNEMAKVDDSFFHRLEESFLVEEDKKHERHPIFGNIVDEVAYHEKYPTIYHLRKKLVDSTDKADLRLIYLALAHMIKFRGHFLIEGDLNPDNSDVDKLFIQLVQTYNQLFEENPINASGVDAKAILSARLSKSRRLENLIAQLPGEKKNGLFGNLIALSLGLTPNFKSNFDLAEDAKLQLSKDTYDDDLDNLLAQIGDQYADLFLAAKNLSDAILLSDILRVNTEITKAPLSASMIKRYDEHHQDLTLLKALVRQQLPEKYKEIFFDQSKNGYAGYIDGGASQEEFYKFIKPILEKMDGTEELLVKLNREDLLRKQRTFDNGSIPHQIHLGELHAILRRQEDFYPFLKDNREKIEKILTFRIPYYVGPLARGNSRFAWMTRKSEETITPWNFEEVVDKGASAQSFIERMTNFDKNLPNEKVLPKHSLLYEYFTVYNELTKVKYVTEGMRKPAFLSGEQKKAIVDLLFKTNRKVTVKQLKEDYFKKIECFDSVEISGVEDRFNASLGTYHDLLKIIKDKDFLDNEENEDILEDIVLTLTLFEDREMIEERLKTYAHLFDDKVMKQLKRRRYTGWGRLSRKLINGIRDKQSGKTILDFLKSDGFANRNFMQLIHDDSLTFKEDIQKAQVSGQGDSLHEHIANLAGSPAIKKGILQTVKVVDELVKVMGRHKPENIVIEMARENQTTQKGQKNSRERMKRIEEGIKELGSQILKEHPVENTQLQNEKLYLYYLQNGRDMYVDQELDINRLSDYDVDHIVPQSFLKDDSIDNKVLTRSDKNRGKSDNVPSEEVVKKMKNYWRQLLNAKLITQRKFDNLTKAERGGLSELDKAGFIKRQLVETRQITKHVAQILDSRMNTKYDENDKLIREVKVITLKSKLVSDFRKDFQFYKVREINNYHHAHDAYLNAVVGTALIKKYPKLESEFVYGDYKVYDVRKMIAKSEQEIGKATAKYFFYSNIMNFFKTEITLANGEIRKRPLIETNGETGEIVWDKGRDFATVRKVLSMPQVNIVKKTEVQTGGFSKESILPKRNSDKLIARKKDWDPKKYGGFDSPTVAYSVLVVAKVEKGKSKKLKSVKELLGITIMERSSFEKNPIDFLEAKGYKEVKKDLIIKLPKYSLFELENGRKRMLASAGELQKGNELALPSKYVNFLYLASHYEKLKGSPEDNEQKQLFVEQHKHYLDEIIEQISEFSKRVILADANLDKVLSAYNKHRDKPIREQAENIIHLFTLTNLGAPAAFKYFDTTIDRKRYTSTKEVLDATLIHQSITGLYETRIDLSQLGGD

B1: sgran50 + dsran50 (mixed)
RNA: GGUAGACGAUUACAUUGCUACAGUUUUAGAGCUAGAAAUAGCAAGUUAAAAUAAGGCUAGUCCGUUAUCAACUUGAAAAAGUGGCACCGAGUCGGUGCUU
DNA 1: CAACGTCATAGACGATTACATTGCTACATGGAGCTGTCTAGAGGATCCGA
DNA 2: TCGGATCCTCTAGACAGCTCCATGTAGCAATGTAATCGTCTATGACGTTG
Regarding B1, the binding result was “binds”.

For the origin of these results see PMC7786333, “Integration of diverse DNA substrates by a casposase can be targeted to R-loops in vitro by its fusion to Cas9”.
